Source: US20060263802A1 (CRUCELL HOLLAND B V, published 2006)

Columns and labels:
Test in all cases: PEPSCAN ELISA, looped 15-mer, 10 ug/ml
[1] = biological target: looped peptide … (rabies virus strain ERA)
[2] = biological target: looped peptide … (rabies virus strain ERA); remark: listed apart in the source
[3] = biological target: looped peptide … (rabies virus strain ERA); remark: listed apart in the source
[4] = biological target: looped peptide … (rabies virus strain ERA); remark: listed apart in the source
[5] = biological target: looped peptide … (rabies virus strain ERA); remark: listed apart in the source
[6] = biological target: looped peptide … (rabies virus strain ERA); remark: listed apart in the source
[7] = biological target: looped peptide … (rabies virus strain ERA); remark: listed apart in the source
[8] = biological target: looped peptide … (rabies virus strain ERA); remark: listed apart in the source
[9] = biological target: looped peptide … (rabies virus strain ERA); remark: listed apart in the source
[10] = biological target: looped peptide … (rabies virus strain ERA); remark: listed apart in the source
[11] = biological target: looped peptide … (rabies virus strain ERA); remark: listed apart in the source
[12] = biological target: looped peptide … (rabies virus strain ERA); remark: listed apart in the source
[13] = biological target: looped peptide … (rabies virus strain ERA); remark: listed apart in the source
[14] = biological target: looped peptide … (rabies virus strain ERA); remark: listed apart in the source
[15] = biological target: looped peptide … (rabies virus strain ERA); remark: listed apart in the source
[16] = biological target: looped peptide … (rabies virus strain ERA); remark: listed apart in the source
[17] = biological target: looped peptide … (rabies virus strain ERA); remark: listed apart in the source
[18] = biological target: looped peptide … (rabies virus strain ERA); remark: listed apart in the source
[19] = biological target: looped peptide … (rabies virus strain ERA); remark: listed apart in the source
[20] = biological target: looped peptide … (rabies virus strain ERA); remark: listed apart in the source
[21] = biological target: looped peptide … (rabies virus strain ERA); remark: listed apart in the source
[22] = biological target: looped peptide … (rabies virus strain ERA); remark: listed apart in the source
[23] = biological target: looped peptide … (rabies virus strain ERA); remark: listed apart in the source
[24] = biological target: looped peptide … (rabies virus strain ERA); remark: listed apart in the source
[25] = biological target: looped peptide … (rabies virus strain ERA); remark: listed apart in the source
[26] = biological target: looped peptide … (rabies virus strain ERA); remark: listed apart in the source
[27] = biological target: looped peptide … (rabies virus strain ERA); remark: listed apart in the source
[28] = biological target: looped peptide … (rabies virus strain ERA); remark: listed apart in the source
[29] = biological target: looped peptide … (rabies virus strain ERA); remark: listed apart in the source
[30] = biological target: looped peptide … (rabies virus strain ERA); remark: listed apart in the source
[31] = biological target: looped peptide … (rabies virus strain ERA); remark: listed apart in the source
[32] = biological target: looped peptide … (rabies virus strain ERA); remark: listed apart in the source
[33] = biological target: looped peptide … (rabies virus strain ERA); remark: listed apart in the source
[34] = biological target: looped peptide … (rabies virus strain ERA); remark: listed apart in the source
[35] = biological target: looped peptide … (rabies virus strain ERA); remark: listed apart in the source
[36] = biological target: looped peptide … (rabies virus strain ERA); remark: listed apart in the source
[37] = biological target: looped peptide … (rabies virus strain ERA); remark: listed apart in the source
[38] = biological target: looped peptide … (rabies virus strain ERA); remark: listed apart in the source
[39] = biological target: looped peptide … (rabies virus strain ERA); remark: listed apart in the source
[40] = biological target: looped peptide … (rabies virus strain ERA); remark: listed apart in the source
[41] = biological target: looped peptide … (rabies virus strain ERA); remark: listed apart in the source
[42] = biological target: looped peptide … (rabies virus strain ERA); remark: listed apart in the source
[43] = biological target: looped peptide … (rabies virus strain ERA); remark: listed apart in the source
[44] = biological target: looped peptide … (rabies virus strain ERA); remark: listed apart in the source
[45] = biological target: looped peptide … (rabies virus strain ERA); remark: listed apart in the source
[46] = biological target: looped peptide … (rabies virus strain ERA); remark: listed apart in the source
[47] = biological target: looped peptide … (rabies virus strain ERA); remark: listed apart in the source
[48] = biological target: looped peptide … (rabies virus strain ERA); remark: listed apart in the source
[49] = biological target: looped peptide … (rabies virus strain ERA); remark: listed apart in the source
[50] = biological target: looped peptide … (rabies virus strain ERA); remark: listed apart in the source
[51] = biological target: looped peptide … (rabies virus strain ERA); remark: listed apart in the source
[52] = biological target: looped peptide … (rabies virus strain ERA); remark: listed apart in the source
[53] = biological target: looped peptide … (rabies virus strain ERA); remark: listed apart in the source
[54] = biological target: looped peptide … (rabies virus strain ERA); remark: listed apart in the source
[55] = biological target: looped peptide … (rabies virus strain ERA); remark: listed apart in the source
[56] = biological target: looped peptide … (rabies virus strain ERA); remark: listed apart in the source
[57] = biological target: looped peptide … (rabies virus strain ERA); remark: listed apart in the source
[58] = biological target: looped peptide … (rabies virus strain ERA); remark: listed apart in the source
[59] = biological target: looped peptide … (rabies virus strain ERA); remark: listed apart in the source
[60] = biological target: looped peptide … (rabies virus strain ERA); remark: listed apart in the source
[61] = biological target: looped peptide … (rabies virus strain ERA); remark: listed apart in the source
[62] = biological target: looped peptide … (rabies virus strain ERA); remark: listed apart in the source
[63] = biological target: looped peptide … (rabies virus strain ERA); remark: listed apart in the source
[64] = biological target: looped peptide … (rabies virus strain ERA); remark: listed apart in the source
[65] = biological target: looped peptide … (rabies virus strain ERA); remark: listed apart in the source
[66] = biological target: looped peptide … (rabies virus strain ERA); remark: listed apart in the source
[67] = biological target: looped peptide … (rabies virus strain ERA); remark: listed apart in the source

B1: human monoclonal antibody CRJB (antibody, V domains shown)
VH: QITLKETGPTLVKPTQTLTLTCTFSGFSLSTSGVGVGWIRQPPGKALEWVTLIYWDDDKRYSPSLENRVTIRKDTSKNQVALTMTNMDPLDTGTYYCAHRQHISSFPWFDSWGQGTLVTVSS
VL: SYVLTQPPSVSVAPGKTARINCGGNNIEYRSVHWYQQKSGQAPVAVIYDNSDRPSGIPERFSGSKSGNTATLTISRVEAGDEADYYCQVWDISSDVVFGGGTKLTVLG
- OD value [1]: 74
- OD value [2]: 103
- OD value [3]: 77
- OD value [4]: 68
- OD value [5]: 100
- OD value [6]: 106
- OD value [7]: 123
- OD value [8]: 83
- OD value [9]: 73
- OD value [10]: 27
- OD value [11]: 44
- OD value [12]: 83
- OD value [13]: 23
- OD value [14]: 56
- OD value [15]: 62
- OD value [16]: 65
- OD value [17]: 79
- OD value [18]: 58
- OD value [19]: 79
- OD value [20]: 93
- OD value [21]: 85
- OD value [22]: 106
- OD value [23]: 90
- OD value [24]: 89
- OD value [25]: 112
- OD value [26]: 83
- OD value [27]: 105
- OD value [28]: 76
- OD value [29]: 5
- OD value [30]: 27
- OD value [31]: 2
- OD value [32]: 71
- OD value [33]: 82
- OD value [34]: 55
- OD value [35]: 66
- OD value [36]: 96
- OD value [37]: 64
- OD value [38]: 79
- OD value [39]: 70
- OD value [40]: 90
- OD value [41]: 90
- OD value [42]: 106
- OD value [43]: 127
- OD value [44]: 111
- OD value [45]: 80
- OD value [46]: 78
- OD value [47]: 92
- OD value [48]: 25
- OD value [49]: 42
- OD value [50]: 8
- OD value [51]: 72
- OD value [52]: 94
- OD value [53]: 97
- OD value [54]: 84
- OD value [55]: 94
- OD value [56]: 83
- OD value [57]: 54
- OD value [58]: 88
- OD value [59]: 111
- OD value [60]: 79
- OD value [61]: 61
- OD value [62]: 66
- OD value [63]: 82
- OD value [64]: 93
- OD value [65]: 72
- OD value [66]: 74
- OD value [67]: 58
